# Changes are numbered by the printed parent chain.
# T1: human TNFR2 (human, UniProt P20333 23-461)
# T1 construct: expressed on the surface of CHO cells; also called HuTNFR2; TNFRSF1B
# T1 sequence: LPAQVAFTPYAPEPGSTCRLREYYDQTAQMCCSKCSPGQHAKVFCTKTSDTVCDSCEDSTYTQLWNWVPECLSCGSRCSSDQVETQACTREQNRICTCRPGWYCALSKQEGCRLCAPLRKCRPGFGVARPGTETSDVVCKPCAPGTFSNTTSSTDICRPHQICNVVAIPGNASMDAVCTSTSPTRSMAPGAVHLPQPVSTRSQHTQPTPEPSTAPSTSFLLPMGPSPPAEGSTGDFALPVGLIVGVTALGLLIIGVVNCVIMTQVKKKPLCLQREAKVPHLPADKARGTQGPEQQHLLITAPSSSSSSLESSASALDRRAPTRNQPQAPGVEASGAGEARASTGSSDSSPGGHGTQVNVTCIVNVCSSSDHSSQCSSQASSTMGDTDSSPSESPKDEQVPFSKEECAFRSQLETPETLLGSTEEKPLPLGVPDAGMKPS
# B1: IgG 1948 (antibody, name in Kabat numbering, V domains shown)
# VH: QVQLVQSGAEVKKPGASVKVSCKVSGFSFPSSGVDWVRQAPGQGLEWLGVTHGSGSTHYNQKFQGRVTITKDTSKSTVYMELSSLRSEDTAVYYCASGEWDEGFVYWGQGTLVTVSS
# VL: DIQLTQSPSFLSASVGDRVTITCKASQNVGTAVAWYQQKPGKAPKLLIYAASTLQSGVPSRFSGSGSGTEFTLTISSLQPEDFATYYCLQYSSYPLTFGGGTKVEIKR
# notes: IgG
# B2: IgG 1951 (antibody, name in Kabat numbering, V domains shown)
# VH: B1 VH with H52W, S54V, W100R
# VL: B1 VL
# notes: IgG
# B3: IgG 2022 (antibody, name in Kabat numbering, V domains shown)
# VH: B1 VH with H52F, G53Q, S54E, W100H
# VL: B1 VL with Y91K
# notes: IgG
# B4: IgG 1963 (antibody, name in Kabat numbering, V domains shown)
# VH: B1 VH with H52F, G53Q, S54E, W100R
# VL: B1 VL with L89Q
# notes: IgG
# B5: IgG 2031 (antibody, name in Kabat numbering, V domains shown)
# VH: B1 VH with W100R
# VL: B1 VL with Y91K
# notes: IgG
# B6: IgG 1966 (antibody, name in Kabat numbering, V domains shown)
# VH: B1 VH with H52L, S54H, W100H
# VL: B1 VL with L89Q
# notes: IgG
# B7: IgG 2019 (antibody, name in Kabat numbering, V domains shown)
# VH: B1 VH with H52R, S54E, W100R
# VL: B1 VL with Y91K
# notes: IgG
# B8: IgG 2023 (antibody, name in Kabat numbering, V domains shown)
# VH: B1 VH with H52F, G53Q, S54E, W100R
# VL: B1 VL with Y91K
# notes: IgG
# B9: IgG 1954 (antibody, name in Kabat numbering, V domains shown)
# VH: B1 VH with H52K, S54Q, W100H
# VL: B1 VL with L89Q
# notes: IgG
# B10: IgG 1967 (antibody, name in Kabat numbering, V domains shown)
# VH: B1 VH with H52L, S54H, W100R
# VL: B1 VL with L89Q
# notes: IgG
# B11: IgG 2013 (antibody, name in Kabat numbering, V domains shown)
# VH: B1 VH with H52K, S54Q, W100S, D101T
# VL: B1 VL with Y91K
# notes: IgG
# B12: IgG 1952 (antibody, name in Kabat numbering, V domains shown)
# VH: B1 VH with H52W, S54V, W100Q
# VL: B1 VL
# notes: IgG
# B13: IgG 2016 (antibody, name in Kabat numbering, V domains shown)
# VH: B1 VH with H52K, S54Q, W100Q
# VL: B1 VL with Y91K
# notes: IgG
# B14: IgG 2035 (antibody, name in Kabat numbering, V domains shown)
# VH: B1 VH with H52K, S54Q, W100R
# VL: B1 VL
# notes: IgG
# B15: IgG 1958 (antibody, name in Kabat numbering, V domains shown)
# VH: B1 VH with H52R, S54E, W100H
# VL: B1 VL with L89Q
# notes: IgG
# B16: IgG 1969 (antibody, name in Kabat numbering, V domains shown)
# VH: B1 VH with W100S, D101T
# VL: B1 VL with L89Q
# notes: IgG
# B17: IgG 2038 (antibody, name in Kabat numbering, V domains shown)
# VH: B1 VH with H52R, S54E, W100H
# VL: B1 VL
# notes: IgG
# B18: IgG 1962 (antibody, name in Kabat numbering, V domains shown)
# VH: B1 VH with H52F, G53Q, S54E, W100H
# VL: B1 VL with L89Q
# notes: IgG
# B19: IgG 2017 (antibody, name in Kabat numbering, V domains shown)
# VH: B1 VH with H52R, S54E, W100S, D101T
# VL: B1 VL with Y91K
# notes: IgG
# B20: IgG 1970 (antibody, name in Kabat numbering, V domains shown)
# VH: B1 VH with W100H
# VL: B1 VL with L89Q
# notes: IgG
# B21: IgG 2037 (antibody, name in Kabat numbering, V domains shown)
# VH: B1 VH with H52R, S54E, W100S, D101T
# VL: B1 VL
# notes: IgG
# B22: IgG 2030 (antibody, name in Kabat numbering, V domains shown)
# VH: B1 VH with W100H
# VL: B1 VL with Y91K
# notes: IgG
# B23: IgG 1965 (antibody, name in Kabat numbering, V domains shown)
# VH: B1 VH with H52L, S54H, W100S, D101T
# VL: B1 VL with L89Q
# notes: IgG
# B24: IgG 2025 (antibody, name in Kabat numbering, V domains shown)
# VH: B1 VH with H52L, S54H, W100S, D101T
# VL: B1 VL with Y91K
# notes: IgG
# B25: IgG 1972 (antibody, name in Kabat numbering, V domains shown)
# VH: B1 VH with W100Q
# VL: B1 VL with L89Q
# notes: IgG
# B26: IgG 2039 (antibody, name in Kabat numbering, V domains shown)
# VH: B1 VH with H52R, S54E, W100R
# VL: B1 VL
# notes: IgG
# B27: IgG 1971 (antibody, name in Kabat numbering, V domains shown)
# VH: B1 VH with W100R
# VL: B1 VL with L89Q
# notes: IgG
# B28: IgG 2021 (antibody, name in Kabat numbering, V domains shown)
# VH: B1 VH with H52F, G53Q, S54E, W100S, D101T
# VL: B1 VL with Y91K
# notes: IgG
# B29: IgG 1961 (antibody, name in Kabat numbering, V domains shown)
# VH: B1 VH with H52F, G53Q, S54E, W100S, D101T
# VL: B1 VL with L89Q
# notes: IgG
# B30: IgG 1949 (antibody, name in Kabat numbering, V domains shown)
# VH: B1 VH with H52W, S54V, W100S, D101T
# VL: B1 VL
# notes: IgG
# B31: IgG 2034 (antibody, name in Kabat numbering, V domains shown)
# VH: B1 VH with H52K, S54Q, W100H
# VL: B1 VL
# notes: IgG
# B32: IgG 1957 (antibody, name in Kabat numbering, V domains shown)
# VH: B1 VH with H52R, S54E, W100S, D101T
# VL: B1 VL with L89Q
# notes: IgG
# B33: IgG 2033 (antibody, name in Kabat numbering, V domains shown)
# VH: B1 VH with H52K, S54Q, W100S, D101T
# VL: B1 VL
# notes: IgG
# B34: IgG 2026 (antibody, name in Kabat numbering, V domains shown)
# VH: B1 VH with H52L, S54H, W100H
# VL: B1 VL with Y91K
# notes: IgG
# B35: IgG 1956 (antibody, name in Kabat numbering, V domains shown)
# VH: B1 VH with H52K, S54Q, W100Q
# VL: B1 VL with L89Q
# notes: IgG
# B36: IgG 1950 (antibody, name in Kabat numbering, V domains shown)
# VH: B1 VH with H52W, S54V, W100H
# VL: B1 VL
# notes: IgG
# B37: IgG 2032 (antibody, name in Kabat numbering, V domains shown)
# VH: B1 VH with W100Q
# VL: B1 VL with Y91K
# notes: IgG
# B38: IgG 1959 (antibody, name in Kabat numbering, V domains shown)
# VH: B1 VH with H52R, S54E, W100R
# VL: B1 VL with L89Q
# notes: IgG
# B39: IgG 2036 (antibody, name in Kabat numbering, V domains shown)
# VH: B1 VH with H52K, S54Q, W100Q
# VL: B1 VL
# notes: IgG
# B40: IgG 1953 (antibody, name in Kabat numbering, V domains shown)
# VH: B1 VH with H52K, S54Q, W100S, D101T
# VL: B1 VL with L89Q
# notes: IgG
# B41: IgG 2015 (antibody, name in Kabat numbering, V domains shown)
# VH: B1 VH with H52K, S54Q, W100R
# VL: B1 VL with Y91K
# notes: IgG
# B42: IgG 1955 (antibody, name in Kabat numbering, V domains shown)
# VH: B1 VH with H52K, S54Q, W100R
# VL: B1 VL with L89Q
# notes: IgG
# Target: T1, human TNFR2
# Assay: binding to human TNFR2 CHO cells
row,binding result,Binder
1,no binding,B1
2,no binding,B2
3,no binding,B3
4,no binding,B4
5,no binding,B5
6,no binding,B6
7,no binding,B7
8,no binding,B8
9,no binding,B9
10,no binding,B10
11,no binding,B11
12,no binding,B12
13,no binding,B13
14,no binding,B14
15,no binding,B15
16,no binding,B16
17,no binding,B17
18,no binding,B18
19,no binding,B19
20,no binding,B20
21,no binding,B21

row,binding result,Binder
1,no binding,B22
2,no binding,B23
3,no binding,B24
4,no binding,B25
5,no binding,B26
6,no binding,B27
7,no binding,B28
8,no binding,B29
9,no binding,B30
10,no binding,B31
11,no binding,B32
12,no binding,B33
13,no binding,B34
14,no binding,B35
15,no binding,B36
16,no binding,B37
17,no binding,B38
18,no binding,B39
19,no binding,B40
20,no binding,B41
21,no binding,B42
